Data published in PMC5165034 (2016).

B1: 7F2 HCAb (antibody, V domains shown)
VH: EVQLVESGGGLVKPGGSLRLSCAASGFTFSADYMSWIRQAPGKGLEWVSYISSSGSSIYYADSVKGRFTISRDNAKNSLYLQMNSLRAEDTAVYYCARGWFGESHSFDYWGQGTLVTVSS
B2: 2F4 HCAb (antibody, V domains shown)
VH: EVQLVESGGGLVKPGGSLRLSCAASGFAFSDYYMSWLRQAPGKGLEWVSYISSSGSNIYYADSVKGRFTISRDNAKNSLYLQMNSLRAEDTAVYYCARGAGVFDYLGQGGRGTLVTVSS
B3: 1G11 HCAb (antibody, V domains shown)
VH: EVQLVESGGGLVKPGGSLRLSCAASGFTFSDYYMSWIRQTPGKGLEWVSYISSSGSNIYYADSVKGRFTISRDNAKNSLYLQMNSLRAEDTAVYYCARGISMARDSWGQGTLVTVSS
B4: 3A8 HCAb (antibody, V domains shown)
VH: EVQLVESGGGLVKPGGSLRLSCAASGFTFSDYYMSWIRQAPGKGLEWVSYISSSGDIIYYADSVKGRFTISRDNAKNSLFLQMNSLRAEDTAVYYCTRGVSLVRDYWGQGTQVTVSS
B5: 1F4 HCAb (antibody, V domains shown)
VH: EVQLVESGGGLVKPGGSLRLSCAASGFTFSDYYMSWIRQAPGKGLEWVSYISSSGSTIYYADSVKGRFTISRDNAKNSLYLQMNSLRAEDTAVYYCARGVKLTEDDWGQGTLVTVSS
B6: 1C12 HCAb (antibody, V domains shown)
VH: EVQLVESGGGLVKPGGSLRLSCAASGFTFSDYYMSWIRQAPGKGLEWVSYISSSGSTIYYADSVKGRFTISRDNAKNSLYLQMNSLRAEDTAVYYCARGVAMVRDSWGQGTLVNVSS

These binders were tested against bromelain-released HA (BHA) of influenza X-31 (influenza A strain X-31 (H3N2)) (assay: BLI).
Binder B1 has a Kd of 35 nM.
B2 gave a Kd of 5.6 nM.
B3 was tested, and the Kd was 2.9 nM.
For B4, the Kd was 3.2 nM.
Work on B5 yielded a Kd of 6.6 nM.
With B6 the Kd was 1.8 nM.
